# Results published in IntAct's records for PubMed 26211610.
# B1: Translation initiation factor eIF2 assembly protein (Saccharomyces cerevisiae), Q05791 (parent)
# chain: MSSQEYTTFIDIPVTRAQVEHCSYSFWSSLYPKYVPKSIVLKSLPKKFIQYLEQDGIKLPQEENSRSVYTEEIIRNEDNDYSDWEDDEDTATEFVQEVEPLIDFPELHQKLKDALNELGAVAPKLNWSAPRDATWILPNNTMKCNEVNELYLLLNASNYIMHDLQRAFKGCVDGDDIKGLKFDLVLRQWCDMNPALEFRVFVKNAHIVGATQRDLNYYDYLDELSDTFKDLIDEIVHDVVLPKFPDKSFVLDVYIPRPFNKIFIVDINPFARKTDSLLFSWNEIAAIAPPKNDVEDYELRLVTRHNTGRFASKEHSENHVPQDLVEASLNPEAIRELTQKWKELLSQQAKEESSDSENET
# Variants of: B1
# Conditions: with if2g_yeast GCD11, P32481
# Chain of if2g_yeast GCD11, P32481 (P32481 whole entry): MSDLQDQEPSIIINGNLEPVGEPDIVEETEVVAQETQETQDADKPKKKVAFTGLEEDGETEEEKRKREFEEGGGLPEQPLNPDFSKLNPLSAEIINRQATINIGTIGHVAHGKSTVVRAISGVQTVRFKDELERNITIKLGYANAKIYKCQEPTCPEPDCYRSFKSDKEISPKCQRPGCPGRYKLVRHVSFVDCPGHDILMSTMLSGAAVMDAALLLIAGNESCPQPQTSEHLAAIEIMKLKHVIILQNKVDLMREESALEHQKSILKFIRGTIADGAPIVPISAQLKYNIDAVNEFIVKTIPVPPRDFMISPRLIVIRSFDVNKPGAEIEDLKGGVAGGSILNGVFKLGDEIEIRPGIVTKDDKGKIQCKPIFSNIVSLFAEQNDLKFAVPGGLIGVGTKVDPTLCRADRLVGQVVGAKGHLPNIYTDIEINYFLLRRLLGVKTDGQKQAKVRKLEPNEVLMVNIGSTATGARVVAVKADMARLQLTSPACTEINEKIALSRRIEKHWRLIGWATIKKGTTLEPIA
row,effect of a mutation on the interaction,Variant
1,decreasing interaction strength,MSSQEYTTFIDIPVTRAQVEHCSYSFWSSLYPKYVPKSIVLKSLPKKFIQYLEQDGIKLPQEENSRSVYTEEIIRNEDNDYSDWEDDEDTATEFVQEVEPLIDFPELHQKLKDALNELGAVAPKLNWSAPRDATWILPNNTMKCNEVNELYLLLNASNYIMHDLQRAFKGCVDGDDIKGLKFDLVLRQWCDMNPALEFRVFVKNAHIVGATQRDLNYYDYLDELSDTFKDLIDEIVHDVVLPKFPDKSFVLDVYIPRPFNKIFIVAAAPFARKTDSLLFSWNEIAAIAPPKNDVEDYELRLVTRHNTGRFASKEHSENHVPQDLVEASLNPEAIRELTQKWKELLSQQAKEESSDSENET [D266A;I267A;N268A]
